Source: patent publication US20240182556A1 (OPSIDIO, published 2024)
Read-outs that look alike come from different tables or passages of the source.

T1: PE9413, C-terminal biotinylated peptide mapping on Exon6 of the SCF molecule (SCF248) (C-terminal biotin)
T1 construct: also called C-terminal biotinylated PE9413; C-ter PE9413
T1 peptide: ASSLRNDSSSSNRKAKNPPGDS

T2: N-terminal biotinylated PE9413 (not fully specified; N-terminal biotin)
T2 construct: also called PE9411; N-ter PE9413
T2 peptide: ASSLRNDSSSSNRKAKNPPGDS

B1: A44P scFv displayed on yeast (scFv, V domains shown)
VH: QVQLVQSGAELKKPGSSVKISCKSSGYAFSSQWMNWVKQRPGQGLEWIGQIYPEDGDTHYNDKFKGKATLTADKSTSTAYMELSSLTSEDSAVYFCSSSNWVGSYWGQGTLVTVSS
VL: DVVMTQSPLSLPVTLGQPASISCKSSQSLLESDGNTYLNWLQQRPGQSPRRLIYLVNRLDSGVPDRFSGSGSGTDFTLKISRVEAEDVGVYYCWQGTDLPQTFGGGTKVEIK
notes: Aga2-anchored, VH-VL orientation; not shown: linker; SV5 tag
B2: A104P scFv displayed on yeast (scFv, V domains shown)
VH: QVQLVQSGAELKKPGSSVKISCKSSGYAFSSQWMNWVKQRPGQGLEWIGQIYPEDGDTHYNGKFKGKATLTADKSTSTAYMELSSLTSEDSAVYFCSSSNWVGSYWGQGTLVTVSS
VL: DVVMTQSPLSLPVTLGQPASISCKSSQSLLEEDGNTYLNWLQQRPGQSPRRLIYLVDRLDSGVPDRFSGSGSGTDFTLKISRVEAEDVGVYYCWQGTDLPQTFGGGTKVEIK
notes: as for B1
B3: B53P scFv displayed on yeast (scFv, V domains shown)
VH: QVQLVQSGAELKKPGSSVKISCKSSGYAFSSQWMNWVKQRPGQGLEWIGQIYPEDGDIHYNGKFKGKATLTADKSTSTAYMELSSLTSEDSAVYFCSSSNWVGSYWGQGTLVTVSS
VL: DVVMTQSPLSLPVTLGQPASISCKSSQSLLESDGNTYLNWLQQRPGQSPRRLIYLVDRLDSGVPDRFSGSGSGTDFTLKISRVEAEDVGVYYCWQGTDLPQTFGGGTKVEIK
notes: as for B1
B4: F64P scFv displayed on yeast (scFv, V domains shown)
VH: QVQLVQSGAELKKPGSSVKISCKSSGYAFSSYYMNWVKQRPGQGLEWIGQIYPGDGDTHMNGKFKGKATLTADKSTSTAYMELSSLTSEDSAVYFCSSSNWVGSYWGQGTLVTVSS
VL: DVVMTQSPLSLPVTLGQPASISCKSSQSLLESDGNTYLNWLQQRPGQSPRRLIYLVDRLDSGVPDRFSGSGSGTDFTLKISRVEAEDVGVYYCWQGTDLPQTFGGGTKVEIK
notes: as for B1
B5: G24P scFv displayed on yeast (scFv, V domains shown)
VH: QVQLVQSGAELKKPGSSVKISCKSSGYAFSSNWMNWVKQRPGQGLEWIGQIYPEDGDTHYNDKFKGKATLTADKSTSTAYMELSSLTSEDSAVYFCSSSNWVGSYWGQGTLVTVSS
VL: DVVMTQSPLSLPVTLGQPASISCKSSQSLLESDGNTYLNWLQQRPGQSPRRLIYLVDRLDSGVPDRFSGSGSGTDFTLKISRVEAEDVGVYYCWQGTDLPQTFGGGTKVEIK
notes: as for B1
B6: D74P scFv displayed on yeast (scFv, V domains shown)
VH: QVQLVQSGAELKKPGSSVKISCKSSGYAFSSQWMNWVKQRPGQGLEWIGQIYPGDNDTHYNDKFKGKATLTADKSTSTAYMELSSLTSEDSAVYFCSSSNWVGSYWGQGTLVTVSS
VL: DVVMTQSPLSLPVTLGQPASISCKSSQSLLEADGNTYLNWLQQRPGQSPRRLIYLVDRLDSGVPDRFSGSGSGTDFTLKISRVEAEDVGVYYCWQGTDLPQTFGGGTKVEIK
notes: as for B1
B7: B104P scFv displayed on yeast (scFv, V domains shown)
VH: QVQLVQSGAELKKPGSSVKISCKSSGYAFSSQWMNWVKQRPGQGLEWIGQIYPDDGDTHYNDKFKGKATLTADKSTSTAYMELSSLTSEDSAVYFCSSSNWVGSYWGQGTLVTVSS
VL: DVVMTQSPLSLPVTLGQPASISCKSSQSLLEADGNTYLNWLQQRPGQSPRRLIYLVDRLDSGVPDRFSGSGSGTDFTLKISRVEAEDVGVYYCWQGTDLPQTFGGGTKVEIK
notes: as for B1
B8: B114P scFv displayed on yeast (scFv, V domains shown)
VH: QVQLVQSGAELKKPGSSVKISCKSSGYAFSSQWMNWVKQRPGQGLEWIGQIYPEDGDTHMNGKFKGKATLTADKSTSTAYMELSSLTSEDSAVYFCSSSNWDGSYWGQGTLVTVSS
VL: DVVMTQSPLSLPVTLGQPASISCKSSQSLLEEDGNTYLNWLQQRPGQSPRRLIYLVDRLDSGVPDRFSGSGSGTDFTLKISRVEAEDVGVYYCWQGTDLPQTFGGGTKVEIK
notes: as for B1
B9: B34P scFv displayed on yeast (scFv, V domains shown)
VH: QVQLVQSGAELKKPGSSVKISCKSSGYAFSSNWMNWVKQRPGQGLEWIGQIYPEDGDTHYNDKFKGKATLTADKSTSTAYMELSSLTSEDSAVYFCSSSNWVGSYWGQGTLVTVSS
VL: DVVMTQSPLSLPVTLGQPASISCKSSQSLLESDGNTYLNWLQQRPGQSPRRLIYLVSRRDSGVPDRFSGSGSGTDFTLKISRVEAEDVGVYYCWQGTDLPQTFGGGTKVEIK
notes: as for B1
B10: A84P scFv displayed on yeast (scFv, V domains shown)
VH: QVQLVQSGAELKKPGSSVKISCKSSGYAFSSQWMNWVKQRPGQGLEWIGQIYPEDGDTHMNGKFKGKATLTADKSTSTAYMELSSLTSEDSAVYFCSSSNWVGSYWGQGTLVTVSS
VL: DVVMTQSPLSLPVTLGQPASISCKSSQSLLEEDGNTYLNWLQQRPGQSPRRLIYLVDRLDIGVPDRFSGSGSGTDFTLKISRVEAEDVGVYYCWQGTDLPQTFGGGTKVEIK
notes: as for B1
B11: G14P scFv displayed on yeast (scFv, V domains shown)
VH: QVQLVQSGAELKKPGSSVKISCKSSGYAFSSQWMNWVKQRPGQGLEWIGQIYPGDGDTHYNDKFKGKATLTADKSTSTAYMELSSLTSEDSAVYFCSSSNWVGSYWGQGTLVTVSS
VL: DVVMTQSPLSLPVTLGQPASISCKSSQSLLEEDGNTYLNWLQQRPGQSPRRLIYLVDRLDDGVPDRFSGSGSGTDFTLKISRVEAEDVGVYYCWQGTDLPQTFGGGTKVEIK
notes: as for B1
B12: D113P scFv displayed on yeast (scFv, V domains shown)
VH: QVQLVQSGAELKKPGSSVKISCKSSGYAFSSQWMNWVKQRPGQGLEWIGQIYPGDGDTHMNGKFKGKATLTADKSTSTAYMELSSLTSEDSAVYFCSSSNWVGSYWGQGTLVTVSS
VL: DVVMTQSPLSLPVTLGQPASISCKSSQSLLEGDGNTYLNWLQQRPGQSPRRLIYLVDRLDIGVPDRFSGSGSGTDFTLKISRVEAEDVGVYYCWQGTDLPQTFGGGTKVEIK
notes: as for B1
B13: B23P scFv displayed on yeast (scFv, V domains shown)
VH: QVQLVQSGAELKKPGSSVKISCKSSGYAFSSYYMNWVKQRPGQGLEWIGQIYPGDGDTHMNGKFKGKATLTADKSTSTAYMELSSLTSEDSAVYFCSSSNWVGSYWGQGTLVTVSS
VL: DVVMTQSPLSLPVTLGQPASISCKSSQSLLESDGNTYLNWLQQRPGQSPRRLIYLVSRRDSGVPDRFSGSGSGTDFTLKISRVEAEDVGVYYCWQGTDLPQTFGGGTKVEIK
notes: as for B1
B14: E94P scFv displayed on yeast (scFv, V domains shown)
VH: QVQLVQSGAELKKPGSSVKISCKSSGYAFSSQWMNWVKQRPGQGLEWIGQIYPGDGDTHMNGKFKGKATLTADKSTSTAYMELSSLTSEDSAVYFCSSSNWVGSYWGQGTLVTVSS
VL: DVVMTQSPLSLPVTLGQPASISCKSSQSLLEEDGNTYLNWLQQRPGQSPRRLIYLVDRLDSGVPDRFSGSGSGTDFTLKISRVEAEDVGVYYCWQGTDLPQTFGGGTKVEIK
notes: as for B1
B15: G104P scFv displayed on yeast (scFv, V domains shown)
VH: QVQLVQSGAELKKPGSSVKISCKSSGYAFSSQWMNWVKQRPGQGLEWIGQIYPGDGDTHMNGKFKGKATLTADKSTSTAYMELSSLTSEDSAVYFCSSSNWVGSYWGQGTLVTVSS
VL: DVVMTQSPLSLPVTLGQPASISCKSSQSLLEEDGNTYLNWLQQRPGQSPRRLIYLVDRLDDGVPDRFSGSGSGTDFTLKISRVEAEDVGVYYCWQGTDLPQTFGGGTKVEIK
notes: as for B1
B16: A64P scFv displayed on yeast (scFv, V domains shown)
VH: QVQLVQSGAELKKPGSSVKISCKSSGYAFSSNWMNWVKQRPGQGLEWIGQIYPEDGDTHYNGKFKGKATLTADKSTSTAYMELSSLTSEDSAVYFCSSSNWVGSYWGQGTLVTVSS
VL: DVVMTQSPLSLPVTLGQPASISCKSSQSLLEEDGNTYLNWLQQRPGQSPRRLIYLVNRLDDGVPDRFSGSGSGTDFTLKISRVEAEDVGVYYCWQGTDLPQTFGGGTKVEIK
notes: as for B1
B17: D24P scFv displayed on yeast (scFv, V domains shown)
VH: QVQLVQSGAELKKPGSSVKISCKSSGYAFSSQWMNWVKQRPGQGLEWIGQIYPEDGDTHYNGKFKGKATLTADKSTSTAYMELSSLTSEDSAVYFCSSSNWVGSYWGQGTLVTVSS
VL: DVVMTQSPLSLPVTLGQPASISCKSSQSLLESDGNTYLNWLQQRPGQSPRRLIYLVSRLDIGVPDRFSGSGSGTDFTLKISRVEAEDVGVYYCWQGTDLPQTFGGGTKVEIK
notes: as for B1
B18: D124P scFv displayed on yeast (scFv, V domains shown)
VH: QVQLVQSGAELKKPGSSVKISCKSSGYAFSSQWMNWVKQRPGQGLEWIGQIYPEDGDTHYNGKFKGKATLTADKSTSTAYMELSSLTSEDSAVYFCSSSNWVGSYWGQGTLVTVSS
VL: DVVMTQSPLSLPVTLGQPASISCKSSQSLLESDGNTYLNWLQQRPGQSPRRLIYLVDRLDSGVPDRFSGSGSGTDFTLKISRVEAEDVGVYYCWQGTDLPQTFGGGTKVEIK
notes: as for B1

Assays:
[1] = molecular target: T1, PE9413, C-terminal biotinylated peptide …; assay: yeast-displayed scFv, flow cytometry titration of biotinylated peptide
Description: (§1) The binding of the selected 48 clones described above to 170 nM of C-terminal biotinylated PE9413 was evaluated. The 24 clones with the highest binding signal were further evaluated for binding affinity. Each clone was incubated with increasing amounts of biotinylated PE9413, and stained with a fluorescently labeled anti-streptavidin antibody. Binding of the clone to PE9413 was analyzed by flow cytometry. A plot of concentration of PE9413 versus the median fluorescent signal of the yeast cell population that bound to PE9413 was used to estimate the binding affinity (KD) of each clone to C-terminal biotinylated PE9413.

[2] = molecular target: T1, PE9413, C-terminal biotinylated peptide …; assay: as above
Description: as §1, with “PE9413. […]” for “PE9413.”

[3] = molecular target: T2, N-terminal biotinylated PE9413; assay: yeast-displayed scFv, flow cytometry titration of N-terminal biotinylated peptide
Description: The affinity of the 12 best clones for the N-terminal biotinylated target peptide […] was also evaluated. Each clone was incubated with increasing amounts of N-terminal biotinylated PE9413, and stained with a fluorescently labeled anti-streptavidin antibody. Binding of the clone to N-terminal biotinylated PE9413 was analyzed by flow cytometry. A plot of concentration of PE9413 versus the median fluorescent signal of the yeast cell population that bound to PE9413 was used to estimate the binding affinity (KD) of each clone to N-terminal biotinylated PE9413. The tested clones were confirmed to have improved affinities over the parental antibody 5H10 against the target sequence PE9413, regardless of the biotinylation modification, as reported in Table A3 and FIG. 12.

Binder	Kd [1] [nM]	Kd [2] [nM]	Kd [3] [nM]
B1	5.32		
B2	3.64	3.64	5.85
B3	4.97		
B4	6.69		
B5	5.79		
B6	6.38		
B7	4.52	4.52	6.38
B8	3.63	3.63	7.14
B9	5.06		
B10	2.52	2.52	3.93
B11	5.93		
B12	8.07		
B13	5.3		
B14	6.33		
B15	7.09		
B16	3.29	3.29	5.23
B17	14.4		
B18	6.97		
